According to paper PMC7483473:

Molecular target: mNeonGreen labeled metabotropic glutamate receptor 3, Q14832
Assay: stepwise photobleaching (subunit counting) of single complexes by TIRF; SPReAD: expressing cells co-plated with VSVG-U2OS cells (typically 10:1), fused at pH 5.5, syncytia fixed with 4% paraformaldehyde, room temperature; mGluR lines were HEK293T fused with U2OS
Settings: remark: other sources report otherwise

fraction by stepwise photobleaching (dimer fraction, as the sentence seems to mean): 33.5%
B1: mNeonGreen labeled metabotropic glutamate receptor 3, Q14832 23-879 (receptor)
chain: LGDHNFLRREIKIEGDLVLGGLFPINEKGTGTEECGRINEDRGIQRLEAMLFAIDEINKDDYLLPGVKLGVHILDTCSRDTYALEQSLEFVRASLTKVDEAEYMCPDGSYAIQENIPLLIAGVIGGSYSSVSIQVANLLRLFQIPQISYASTSAKLSDKSRYDYFARTVPPDFYQAKAMAEILRFFNWTYVSTVASEGDYGETGIEAFEQEARLRNICIATAEKVGRSNIRKSYDSVIRELLQKPNARVVVLFMRSDDSRELIAAASRANASFTWVASDGWGAQESIIKGSEHVAYGAITLELASQPVRQFDRYFQSLNPYNNHRNPWFRDFWEQKFQCSLQNKRNHRRVCDKHLAIDSSNYEQESKIMFVVNAVYAMAHALHKMQRTLCPNTTKLCDAMKILDGKKLYKDYLLKINFTAPFNPNKDADSIVKFDTFGDGMGRYNVFNFQNVGGKYSYLKVGHWAETLSLDVNSIHWSRNSVPTSQCSDPCAPNEMKNMQPGDVCCWICIPCEPYEYLADEFTCMDCGSGQWPTADLTGCYDLPEDYIRWEDAWAIGPVTIACLGFMCTCMVVTVFIKHNNTPLVKASGRELCYILLFGVGLSYCMTFFFIAKPSPVICALRRLGLGSSFAICYSALLTKTNCIARIFDGVKNGAQRPKFISPSSQVFICLGLILVQIVMVSVWLILEAPGTRRYTLAEKRETVILKCNVKDSSMLISLTYDVILVILCTVYAFKTRKCPENFNEAKFIGFTMYTTCIIWLAFLPIFYVTSSDYRVQTTTMCISVSLSGFVVLGCLFAPKVHIILFQPQKNVVTHRLHLNRFSVSGTGTTYSQSSASTYVPTVCNGREVLDSTTSSL
